Data: article PMC5387736, “SnoN Stabilizes the SMAD3/SMAD4 Protein Complex” (Scientific Reports, 2017)
One block for each molecule: values may come before it.

T1: SnoN (M1-S356), untagged (UniProt P12757-1 1-356)
T1 construct: Cloned in pNIC28Bsa4; the asterisk marks the TEV cut, so SM probably remains at the N-terminus after cleavage; also called truncated SnoN (M1-S356, 38.6 kDa); not shown: His6, N-terminal, cleaved
T1 sequence (looked up): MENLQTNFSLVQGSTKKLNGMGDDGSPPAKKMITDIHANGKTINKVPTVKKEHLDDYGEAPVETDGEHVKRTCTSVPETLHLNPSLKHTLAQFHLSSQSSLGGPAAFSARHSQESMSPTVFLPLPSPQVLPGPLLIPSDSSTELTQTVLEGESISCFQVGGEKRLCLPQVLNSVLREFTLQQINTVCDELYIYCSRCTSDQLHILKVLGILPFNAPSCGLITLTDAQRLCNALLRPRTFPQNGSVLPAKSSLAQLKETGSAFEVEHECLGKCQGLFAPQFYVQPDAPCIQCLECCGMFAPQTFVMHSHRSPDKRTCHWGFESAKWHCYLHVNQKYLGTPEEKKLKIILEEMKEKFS

B1: SnoN SAND-domain (T238-S356) with C-terminal biotinylation sequence (domain or fragment, UniProt P12757-1 238-356, looked up)
chain: TFPQNGSVLPAKSSLAQLKETGSAFEVEHECLGKCQGLFAPQFYVQPDAPCIQCLECCGMFAPQTFVMHSHRSPDKRTCHWGFESAKWHCYLHVNQKYLGTPEEKKLKIILEEMKEKFS
notes: SnoN, SAND domain, residues T238-S356; Cloned in pNicBio3 for the SPR analysis; In the SPR it was the analyte, SMAD4 was amine-coupled; also called SnoN (T238-S356)
B2: His-tagged MH2 domain of SMAD4 (I314-Q549) (domain or fragment, UniProt Q13485 314-549, looked up)
chain: ISNHPAPEYWCSIAYFEMDVQVGETFKVPSSCPIVTVDGYVDPSGGDRFCLGQLSNVHRTEAIERARLHIGKGVQLECKGEGDVWVRCLSDHAVFVQSYYLDREAGRAPGDAVHKIYPSAYIKVFDLRQCHRQMQQQAATAQAAAAAQAAAVAGNIPGPGSVGGIAPAISLSAAAGIGVDDLRRLCILRMSFVKGWGPDYPRQSIKETPCWIEIHLHRALQLLDEVLHTMPIADPQ
notes: SMAD4, MH2 domain, residues I314-Q549; Cloned in pNIC28Bsa4; also called ^HisSMAD4; not shown: His6, N-terminal, kept

Legend:
[1] = target: Strep II-tagged MH2 domain of SMAD3 (S423E, S425D), E145-D425; assay: SEC; gel filtration of the single proteins in buffer A (Superdex 200 for SMAD4 and SnoN constructs, Sephacryl 300 for SMAD3); oligomeric state from the retention volume
SnoN (M1-S356), untagged = target: T1, SnoN (M1-S356), untagged; assay: fluorescence labelling of cysteines (IRDye 800CW maleimide) and gel scanning; Ni-NTA eluate of the isolated SnoN-SMAD3-SMAD4 complex, boiled in 1% SDS, labelled, SDS-PAGE, near-infrared imaging; three measurements
[2] = target: B2; assay: SPR; BIAcore 2000; SMAD4 (I314-Q549) amine-coupled on CM5 (about 1300 RU); SnoN SAND domain 0-500 nM injected; 10 mM HEPES pH 7.4, 150 mM NaCl, 0.005% TWEEN-20, 0.5 mM TCEP; room temperature; one-step binding model; details: both partners purified
[3] = target: B2; assay: crystal structure; SnoN SAND domain with SMAD4 MH2 domain, complex reconstituted 1:1; sitting drop, 2.8-3.3 M NaCl, 0.1 M Bis-Tris pH 5.5, 20 °C; 2.6 Å

stoichiometry N [1]: 3
stoichiometry N (SMAD3 per SnoN) (SnoN (M1-S356), untagged): 2.1
Molecule: Strep II-tagged MH2 domain of SMAD3 (S423E, S425D), E145-D425 (domain or fragment)

Molecule: B1
Kd [2]: 1100 nM
koff [2]: 0.129 s⁻¹
kon [2]: 120000 M⁻¹ s⁻¹

Molecule: B2
stoichiometry N [3]: 3
stoichiometry N (SnoN (M1-S356), untagged; both partners purified): 1.2 SMAD4 per SnoN
